From patent US20250000991A1, “NECTIN-4 ANTIBODIES AND ANTIBODY-DRUG CONJUGATES” (Eli Lilly and Company, priority 2023, published 2025)
Several values for one entry are separate records, joined by “and”; a condition that tells them apart may be missing. Equal values may be shown once.

Columns and labels:
[1] = test system: UM-UC-3 Nectin4 clone F7 xenograft; experiment: Tumor xenograft, high nectin-4 expression; assay type: in vivo, mice (nu/nu); conditions: UMUC3 Nectin-4 clone F7 xenograft, single dose 2 mg/kg, day 40
Experimental: In order to test the efficacy of the nectin-4 ADCs of the present disclosure, which have effector null mutations in the Fc region, and to compare to the enfortumab antibody, which has wildtype Fc and in an ADC with the same payload background as the ones of this disclosure, two tumor xenograft models with either high or moderate nectin-4 expression were tested as described. Immune compromised female mice (nu/nu) between 5-8 weeks of age with weight 18-20 grams were implanted unilaterally on the right flank with UM-UC-3 Nectin4 clone F7 cells with high nectin-4 expression. […] The test articles were given at a single dose (2 mg/kg) formulated with 5% dextrose. Tumors were measured biweekly until Day 40.

MDA-MB-468 xenograft = experiment: Tumor xenograft, moderate nectin-4 expression; assay type: in vivo, NSG mice; conditions: MDAMB468 xenograft, single dose 2 mg/kg, day 71
Experimental: In a separate study, female NSG mice between 5-6 weeks of age were injected subcutaneously with MDA-MB-468 cells with moderate Nectin-4 expression. When tumors reached approximately 150-250 mm^3; animals were matched by tumor volume into treatment or control groups and dosing initiated (Day 0, n=8 per group). The test articles were given at a single dose (2 mg/kg) formulated with 5% Dextrose. Tumors were measured biweekly until Day 71.
In both models, a 2 mg/kg single dose treatment of either the nectin-4 ADCs (exemplified herein with each of Abs1-8 conjugated as in Formula XI, and with a DAR of 8) or benchmark enfortumab ADC (enfortumab conjugated with Formula XI, and with a DAR of 8) was used. Tumor growth was measured at day 40 for UMUC3 Nectin-4 clone F7 and day 71 for MDAMB468 xenografts.

human Nectin-4 = biological target: T1, human Nectin-4 (Homo sapiens, UniProt Q96NY8); experiment: Surface plasmon resonance (Biacore 8K+) binding of nectin-4 ADCs to human Nectin-4; conditions: human Nectin-4, 37° C., ADC Formula XI DAR 8; n=3 mean ± SD, n=2 replicate values
T1 construct: His tag; purchased Acro Biosystems NE4-H52H3
T1 sequence (Q96NY8 32-510): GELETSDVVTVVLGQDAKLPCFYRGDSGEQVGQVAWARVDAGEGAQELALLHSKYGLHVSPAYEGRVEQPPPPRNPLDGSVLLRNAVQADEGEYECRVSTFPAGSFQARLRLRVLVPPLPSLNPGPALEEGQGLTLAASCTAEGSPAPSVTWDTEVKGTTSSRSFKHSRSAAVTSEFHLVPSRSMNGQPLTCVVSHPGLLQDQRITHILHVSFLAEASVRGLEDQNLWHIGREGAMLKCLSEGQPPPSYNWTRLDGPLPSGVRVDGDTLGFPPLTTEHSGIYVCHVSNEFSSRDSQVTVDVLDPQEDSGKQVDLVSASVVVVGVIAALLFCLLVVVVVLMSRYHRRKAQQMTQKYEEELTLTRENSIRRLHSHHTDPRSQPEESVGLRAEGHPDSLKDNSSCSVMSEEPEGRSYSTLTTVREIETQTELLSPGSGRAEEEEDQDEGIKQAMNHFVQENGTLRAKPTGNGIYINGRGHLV
Experimental: (§1) An anti-human Fc sensor surface was prepared by amine-coupling of goat anti-human IgG Fc (Southern Biotech Cat. No. 2014-01, Birmingham, AL) to a Biacore Series S CM4 (Cytiva Cat. No. BR-100534) sensor surface at 25° C. For immobilization, a running buffer of 10 mM HEPES, 150 mM NaCl, 0.05% Tween-20, pH 7.4 was used. Flow cells 1 & 2 of all 8 channels were activated with a 1:1 (v/v) mixture of 400 mM 1-Ethyl-3-(3-dimethylaminopropyl) carbodiimide hydrochloride (EDC) and […] N-Hydroxysuccinimide (NHS) at a flow rate of 10 uL/min for 7 minutes. Then the anti-human IgG Fc capture reagent was coupled to the sensor surface (diluted to 50 μg/mL in 10 mM Acetate pH 4.5 buffer) by injecting it in all flow cells and channels at a flow rate of 10 uL/min for 7 minutes. Remaining active groups were blocked by injecting 100 mM ethylenediamine (in 200 mM Borate buffer, pH 8.5) in all flow cells and channels at a flow rate of 10 uL/min for 7 minutes. All channels and flow cells were then preconditioned using three consecutive 1-minute injections of 75 mM phosphoric acid at 10 uL/min.
(§2) In each analysis cycle, a different ADC was captured on flow cell 2 of each channel by injecting it at 5 μg/mL and 10 uL/min. After capture, the same analyte was injected on flow cells 1 and 2 in all 8 channels for 2 minutes at 30 uL/n and dissociation was monitored for 10 minutes. After dissociation, all surfaces were regenerated with three 1-minute injections of 5 mM phosphoric acid at 10 uL/min. ADC capture and analyte cycles were repeated to obtain analyte binding of each ADC at concentrations of 0, 2.5, 7.4, 22, 67, 200 and 600 nM nectin-4.
(§3) Sensorgram data were fit globally with the default 1:1 binding model in Biacore Insight Evaluation Software v3.0.12.15655.

[2] = test system: T24 mScarlet clone 5 Nectin-4 negative cells; experiment: Bystander killing of T24-mScarlet clone 5 cells co-cultured with T24-human nectin4 clone108 (imaging); assay type: cell-based; conditions: T24-mScarlet clone5 : T24-human nectin4 clone108 9:1, 5 days, ADC Formula XI DAR 8; read-out: IC50 of bystander effect
Experimental: T24 cell line was engineered to express mScarlet and clonally selected to test in bystander assay. T24-mScarlet clone5 and T24-human nectin4 clone108 were mixed and seeded at a total of 1000 cells/well/100 ul with a ratio of 9:1 in culture medium (McCoy's 5A+1× GlutaMax+10% Heat Inactivated Fetal Bovine Serum+400 μg/ml G418) in flat clear bottom 96-well plates. T24 mScarlet clone 5 cells were negative for nectin-4 expression. Plates were incubated at 37° C. with 5% CO2 overnight. Next day, ADCs were added at final working concentration from 50 nM, 1:4 serially diluted in culture medium. Plates were covered with Breathe-Easy® sealing membrane, placed in BioSpa and scanned in Cytation5 every day for 5 days.
Images of T24-mScarlet cells were captured and analyzed by Cytation5 with Gen5 Image Prime 3.11. Percentage of T24-mScarlet cell killing was calculated by decreased Integrated Intensity (area×mean intensity), normalized to zero hour and no treatment. Data was graphed and analyzed using GraphPad Prism version 9.5.1. IC50 was determined via log(inhibitor) vs. response-variable slope (four parameters) curve fitting.

cyno Nectin-4 = experiment: Surface plasmon resonance (Biacore 8K+) binding of nectin-4 ADCs to cyno Nectin-4; conditions: cyno Nectin-4, 37° C., ADC Formula XI DAR 8, n=1
Experimental: as §1, §2, §3

rat Nectin-4 = experiment: Surface plasmon resonance (Biacore 8K+) binding of nectin-4 ADCs to rat Nectin-4; conditions: rat Nectin-4, 37° C., ADC Formula XI DAR 8, n=1
Experimental: as §1, §2, §3

[3] = test system: UMUC3-Luc-GFP + UMUC3-hNectin4 clone F7; experiment: Bystander killing of UMUC3-Luc-GFP cells co-cultured with UMUC3-hNectin4 clone F7 (ONE-Glo); assay type: cell-based, human; conditions: UMUC3-hNectin-4 cloneF7/UMUC3-Luciferase-GFP 4:1, 5 days
Experimental: UMUC3 cell line was engineered to express human Nectin4 and two clonal populations with different levels of expression were selected. In flat white clear-bottom 96-well plates, UMUC3-hNectin4 clone F7/UMUC3-Luc-GFP cells were mixed and seeded at a total of 1500 cells/well/100 ul with a ratio of 4:1 in assay medium (MEM+1× GlutaMax+10% Heat Inactivated Fetal Bovine Serum+1 mM sodium pyruvate). UMUC3-hNectin4 clone E3/UMUC3-Luc-GFP cells were mixed and seeded at a total of 2100 cells/well/100 ul with a ratio of 6:1 in assay medium. UMUC3-Luc-GFP cells were negative for nectin-4 expression. Plates were incubated at 37° C. with 5% CO2 overnight. […] Plates were read after 5-days treatment using ONE-GloTM Luciferase Assay System. […] Luminescence was read in the SpectraMax M5e. […] Percentage of UMUC3-Luc-GFP killing was calculated against no treatment as 0%. Data was graphed and analyzed using Graphpad Prism version 9.5.1. IC50 was determined via log(inhibitor) vs. response (three parameters) curve fitting for bystander activity and log(inhibitor) vs. response (four parameters) for free payload cytotoxicity. […] In experiments run as essentially described herein, the bystander effects of four nectin-4 ADCs described herein and enfortumab vedotin were evaluated using the UMUC3-hNectin-4 cloneF7/UMUC3-Luciferase-GFP cell pair. […]

B1: Ab6 ADC: Ab6 conjugated as in Formula XI, and with a DAR of 8 (conjugate)
heavy: QVQLVQSGAEVKKPGASVKVSCKASGYTFTGYYMHWVRQAPGQGLEWMGIINPSGGSTTYAQKFQGRVTMTRDTSTSTVYMELSSLRSEDTAVYYCARGRLGTYFDYWGQGTLVTVSSASTKGPSVFPLAPSSKSTSGGTAALGCLVKDYFPEPVTVSWNSGALTSGVHTFPAVLQSSGLYSLSSVVTVPSSSLGTQTYICNVNHKPSNTKVDKRVEPKSCDKTHTCPPCPAPEAAGGPSVFLFPPKPKDTLMISRTPEVTCVVVSVSHEDPEVKFNWYVDGVEVHNAKTKPREEQYNSTYRVVSVLTVLHQDWLNGKEYKCKVSNKALPAPIEKTISKAKGQPREPQVYTLPPSREEMTKNQVSLTCLVKGFYPSDIAVEWESNGQPENNYKTTPPVLDSDGSFFLYSKLTVDKSRWQQGNVFSCSVMHEALHNHYTQKSLSLSPGK
light: SYVLTQPPSVSVAPGQTARITCGGNNIGSKSVHWYQQKPGQAPVLVVYDDSDRPSGIPERFSGSNSGNTATLTISRVEAGDEADYYCQVWDRSSDQVVFGGGTKLTVLGQPKAAPSVTLFPPSSEELQANKATLVCLISDFYPGAVTVAWKADSSPVKAGVETTTPSKQSNNKYAASSYLSLTPEQWKSHRSYSCQVTHEGSTVEKTVAPTECS
[1]
  Mean tumor volume: 866.94 mm^3
MDA-MB-468 xenograft
  Mean tumor volume: 304.9 mm^3

B2: Ab1a (conjugate)
heavy: QVQLVQSGAQVKKPGASVKVSCKASGYTFTGYYIHWVRQAPGQGLEWMGWINPNSGGTNYAQKFQGRVTMTRDTSISTAYMELSRLRSDDTAVYFCAREDWDFDYWGQGTLVTVSSASTKGPSVFPLAPSSKSTSGGTAALGCLVKDYFPEPVTVSWNSGALTSGVHTFPAVLQSSGLYSLSSVVTVPSSSLGTQTYICNVNHKPSNTKVDKRVEPKSCDKTHTCPPCPAPEAAGGPSVFLFPPKPKDTLMISRTPEVTCVVVSVSHEDPEVKFNWYVDGVEVHNAKTKPREEQYNSTYRVVSVLTVLHQDWLNGKEYKCKVSNKALPAPIEKTISKAKGQPREPQVYTLPPSREEMTKNQVSLTCLVKGFYPSDIAVEWESNGQPENNYKTTPPVLDSDGSFFLYSKLTVDKSRWQQGNVFSCSVMHEALHNHYTQKSLSLSPGK
light: EIVLTQSPGTLSLSPGERATLSCRTSQSVSSSYLAWYQQKPGQAPRLLIYGASNRATDIPDRFSGSGSGTDFTLTINRLEPEDFAVYYCQQYGSSPITFGQGTRLEIKRTVAAPSVFIFPPSDEQLKSGTASVVCLLNNFYPREAKVQWKVDNALQSGNSQESVTEQDSKDSTYSLSSTLTLSKADYEKHKVYACEVTHQGLSSPVTKSFNRGEC
Human Nectin-4
  ka: 2.83 × 10^5, 1/Ms and 4.24 × 10^5 1/Ms
  kd: 4.02 × 10^−2, 1/s and 3.08 × 10^−2 1/s
[2]
  IC50: 0.041 nM
Cyno Nectin-4
  ka: 310000 M⁻¹ s⁻¹
  kd: 0.026 s⁻¹
Rat Nectin-4
  ka: 252000 M⁻¹ s⁻¹
  kd: 0.0453 s⁻¹
[3]
  Bystander effect (in words): potent bystander effects

B3: Ab5 ADC: Ab5 conjugated as in Formula XI, and with a DAR of 8 (conjugate)
heavy: QVQLVQSGAEVKKPGASVKVSCKASGYTFTSYYVHWVRQAPGQGLEWMGIINPSIISTSYAQKFQARVTMTRDTSTSTVYMELSSLRSEDTAVYYCARGLNFDAFDIWGQGTLVTVSSASTKGPSVFPLAPSSKSTSGGTAALGCLVKDYFPEPVTVSWNSGALTSGVHTFPAVLQSSGLYSLSSVVTVPSSSLGTQTYICNVNHKPSNTKVDKRVEPKSCDKTHTCPPCPAPEAAGGPSVFLFPPKPKDTLMISRTPEVTCVVVSVSHEDPEVKFNWYVDGVEVHNAKTKPREEQYNSTYRVVSVLTVLHQDWLNGKEYKCKVSNKALPAPIEKTISKAKGQPREPQVYTLPPSREEMTKNQVSLTCLVKGFYPSDIAVEWESNGQPENNYKTTPPVLDSDGSFFLYSKLTVDKSRWQQGNVFSCSVMHEALHNHYTQKSLSLSPGK
light: DIQLTQSPSFLSASVGDRVTITCRASQGISSYLAWYQQKPGKAPKLLIYAASTLQSGVPSRFSGSGSGTEFTLTISSLQPEDFATYYCQQLNNYPFTFGQGTKVEIKRTVAAPSVFIFPPSDEQLKSGTASVVCLLNNFYPREAKVQWKVDNALQSGNSQESVTEQDSKDSTYSLSSTLTLSKADYEKHKVYACEVTHQGLSSPVTKSFNRGEC
[1]
  Mean tumor volume: 632.99 mm^3
MDA-MB-468 xenograft
  Mean tumor volume: 220.38 mm^3
